Values quoted from earlier work in publication PMC8138767, “Intrinsically disordered substrates dictate SPOP subnuclear localization and ubiquitination activity” (The Journal of Biological Chemistry, 2021).

Tests used:
SPOP28–359 = molecular target: T1, SPOP28–359 (Homo sapiens, UniProt O43791); conditions: substrates with six (DAXX) and seven (AR) SB motifs; cited from earlier work
T1 construct: A plasmid encoding His–SUMO–SPOP human residues 28 to 359; His-SUMO (N, cleaved yes); made in house; host or cells: E. coli Rosetta BL-21(DE3)
Source text: We next sought to assess the role of SPOP oligomerization in the SPOP–Pdx1 interaction and saw a near 10-fold enhancement in binding affinity of Pdx1 to oligomeric SPOP28–359 compared with SPOP–MATH (Fig. 5B and Table S4) in agreement with previous similar observations ([22], [23]). Concentration-dependent SPOP self-association results in an ensemble of oligomeric species with sizes spanning from dimers to large multimers ([21]). SPOP substrates DAXX and AR are also multivalent for SPOP; they contain six and seven SB motifs, respectively, which dramatically enhances their affinities for SPOP28 ...

SPOP = conditions: in phase-separated droplets in cells; cited from earlier work
Source text: SPOP derives its name from the […]. Specifically, SPOP colocalizes with nuclear speckles but has also been reported in other subnuclear compartments ([24], [26]). The nuclear speckles that house SPOP in the absence of high concentrations of substrate are liquid-like in nature ([21]). The SPOP substrate DAXX typically localizes to promyelocytic leukemia bodies ([27]).

T1 sequence (O43791 28-359): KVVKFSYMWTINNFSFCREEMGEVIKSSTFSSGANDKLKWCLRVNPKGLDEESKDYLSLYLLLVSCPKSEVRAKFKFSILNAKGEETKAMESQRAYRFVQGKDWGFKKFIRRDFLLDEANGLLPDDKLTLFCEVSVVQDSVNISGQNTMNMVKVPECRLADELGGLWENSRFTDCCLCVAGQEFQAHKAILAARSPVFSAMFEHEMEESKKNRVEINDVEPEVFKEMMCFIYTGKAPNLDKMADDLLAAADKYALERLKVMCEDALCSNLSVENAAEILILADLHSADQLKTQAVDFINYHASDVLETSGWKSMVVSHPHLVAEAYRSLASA

## AR: androgen receptor, SPOP substrate with seven SB motifs
SPOP28–359
  affinity for SPOP28–359 relative to SPOP–MATH: dramatically enhances their affinities for SPOP28–359 relative to SPOP–MATH
SPOP
  SPOP-mediated polyubiquitination in cells: robust SPOP-mediated polyubiquitination
